Test results: FireProtDB (doi:10.1021/acs.biochem.7b00571)

Conditions: Nicotiana tabacum; pH 7.2; 4 °C; Urea; Fluorescence; BES; reversible: yes; whole UniProt chain shown

B1: Salicylic acid-binding protein 2 wild type, Q6RYA0 (protein)
chain: MKEGKHFVLVHGACHGGWSWYKLKPLLEAAGHKVTALDLAASGTDLRKIEELRTLYDYTLPLMELMESLSADEKVILVGHSLGGMNLGLAMEKYPQKIYAAVFLAAFMPDSVHNSSFVLEQYNERTPAENWLDTQFLPYGSPEEPLTSMFFGPKFLAHKLYQLCSPEDLALASSLVRPSSLFMEDLSKAKYFTDERFGSVKRVYIVCTEDKGIPEEFQRWQIDNIGVTEAIEIKGADHMAMLCEPQKLCASLLEIAHKYN
For B1, the “denaturant midpoint (higher = more stable)” value was 2.2 M.
